“Also recorded” adds a separate entry of the source.

In assay [1] the test system is prk6 pollen tubes transformed with PRK6 ΔN239I240. Briefly: Gelatin-beads assay, prk6 pollen tubes transformed with ΔN239I240 PRK6. The class given is cell-based, Arabidopsis. Conditions: beads with 250 nM wild-type AtLURE1.2; 10–23 pollen tubes per assay, three assays. How it is done:
(§1) Attraction activities of mutant AtLURE1.2 peptides were examined for semi-in-vivo pollen tubes growing through cut, pollinated pistils by gelatin-beads assay and wavy assay, [20]. For the gelatin-beads assay, pollen tubes were grown on solid pollen germination medium poured into a mold made with 1-mm thick silicone rubber and cover glasses. After hand-pollination, the topside cover glass was removed and the medium was covered with hydrated silicone oil (KF-96–100CS; Shin-Etsu). Attraction of pollen tubes toward the peptide was evaluated using AtLURE1 peptide containing gelatine beads under an inverted microscope (IX71, Olympus) equipped with a micro-manipulator (Narishige). For the AtLURE1-responsive wavy assay, the purified AtLURE1.2 peptide was added to solid pollen germination medium, which was melted at 70 °C and then cooled to a certain degree. The mixture was mixed by vortexing and poured into the mold. Pollen tubes of each genotype were grown through cut styles, as mentioned above. Each peptide (25 μM in 10 mM Bis-Tris (pH 6.0) and 100 mM NaCl) was diluted to 250 nM by cultivation medium in both assays. To examine reactivity of PRK6 mutants to AtLURE1.2, constructs for PRK6 mutants, D234A, N239A, and ΔN239I240, were generated by site-directed mutagenesis from a wild-type PRK6 vector, pPZP221-pPRK6::PRK6-mRuby2 (ref. [20]). […]

The subject of the next assay is MIK1^LRR. Briefly: In vitro pull-down with MIK1^LRR. The class given is binding, Arabidopsis. Conditions: Ni-NTA, excess AtLURE1.2, on ice 30 min, washed five times; SDS-PAGE, Coomassie blue. The text has this:
The genes of AtPRK3 ^LRR (residues 1–241), AtPRK4 ^LRR (residues 1–277), AtPRK5 ^LRR (residues 1–279), AtPRK6 ^LRR (residues 1–262), MIK1 ^LRR (residues 1–633), MIK2 ^LRR (residues 1–707) were amplified from Arabidopsis cDNA library by PCR and cloned into pFastBac-1 vector with a C-terminal 6 × His-tag. Their identities were confirmed by sequencing. The mature form of AtLURE1.1 (residues 20–94), AtLURE1.2 (residues 20–90), AtLURE1.3 (residues 21–91), and AtLURE1.4 (residues 20–90) were cloned into pFastBac-1 vector, with a modified N-terminal hemolin signal peptide and 6 × His-SUMO tag. Point mutation constructs were generated by QuickChange Site-Directed Mutagenesis Kit (Strategene). All the proteins were expressed using the Bac-to-Bac baculovirus expression system (Invitrogen) in High Five cells at 22 °C. One liter of High Five cells (2.0 × 10^6 cells mL^−1) cultured in the medium from Expression Systems was infected with 25 ml recombinant baculovirus and the media was collected after 72 h of infection. Secreted LRR proteins were purified using Ni-NTA (Novagen) and size-exclusion chromatography (Hiload 200, GE Healthcare) in buffer containing 10 mM Bis-Tris pH 6.0 and 100 mM NaCl. […]
The purified His-tagged ectodomains of AtPRK proteins and MIK1, 2 were used to pull-down the AtLURE1.2 peptide. […] All the eluted samples were analyzed by SDS-PAGE and visualized by Coomassie blue staining. […]

In assay [2] the test system is prk6 pollen tubes transformed with PRK6 N239A. In words: Wavy assay, prk6 pollen tubes transformed with N239A PRK6. Type of assay: cell-based, Arabidopsis. The settings on record: 250 nM wild-type AtLURE1.2 in medium. The protocol: as §1, with “assays.” for “assays. To examine reactivity of PRK6 mutants to AtLURE1.2, constructs for PRK6 mutants, D234A, N239A, and ΔN239I240, were generated by site-directed mutagenesis from a wild-type PRK6 vector, pPZP221-pPRK6::PRK6-mRuby2 (ref. [20]).”
pollen tubes. Fluorescence is from mRuby2 fused to the C-terminal of PRK6 receptors, showing that all of mutant PRK6 receptors localize normally to the plasma membrane of the pollen tube tip. […]

Assay [3] deals with AtPRK3^LRR and AtPRK6^LRR. Briefly: Gel filtration assay, AtPRK3^LRR-AtPRK6^LRR interaction in the presence of AtLURE1.2. Type of assay: binding, Arabidopsis. How it is done: The AtPRK6^LRR and AtLURE1.2 proteins purified as described above were subjected to gel filtration (Hiload 200, GE Healthcare) in buffer containing 10 mM Bis-Tris pH 6.0 and 100 mM NaCl. A mixture of the purified AtPRK6^LRR and AtLURE1.2 proteins with a molar ratio of about 1:3 were incubated in 4 °C for 30 min before gel filtration analysis. Samples from relevant fractions were applied to SDS-PAGE and visualized by Coomassie blue staining. Similar procedures were used to verify the interaction of AtLURE1.2 with the other LRR proteins. […]
the presence or absence of AtLURE1.2 in vitro. […]
assay. Left panel: gel-filtration profile of the AtPRK3LRR and AtPRK6LRR proteins.
A280 (mAU), […] at 280 nm. Right panel: Coomassie blue staining of the peak fractions shown on the top following SDS–PAGE. M, molecular weight ladder (kDa). Numbers on top of SDS-PAGE indicate elution […]
AtLURE1.2 under gel filtration assay. The assays were performed as described in […]
(1 picture or pasted object on this page, not shown here)

B1: AtLURE1.2: mature form of AtLURE1.2 (residues 20–90), defensin-like cysteine-rich peptide expressed in insect cells (protein)
chain: TLINGSSDEERTYSFSPTTSPFDPRSLNQELKIGRIGYCFDCARACMRRGKYIRTCSFERKLCRCSISDIK
modifications: left off: His6, N-terminal, cleaved | SUMO, N-terminal, cleaved
notes: mature form of AtLURE1.2 (residues 20–90), defensin-like cysteine-rich peptide expressed in insect cells
Consider B1, for which the pollen tube attraction result in assay [1] is “significantly lower than those in wild-type and N239A PRK6 pollen tubes; also recorded: significantly reduced”. Besides, the “interaction in pull-down assay” value in the assay with MIK1^LRR is “none of the other LRR proteins was found to interact”. The “wavy and branched pollen tube behavior” value in assay [2] was “severe wavy and branched behavior; also recorded: comparable reactivity to the wild-type PRK6”. The “AtPRK3^LRR-AtPRK6^LRR complex formation in the presence of AtLURE1.2” value in assay [3] is on record as “do not form a complex; also recorded: failed to detect AtPRK6^LRR−AtPRK3^LRR interaction”.

(Values after paper PMC5673899, “Structural basis for receptor recognition of pollen tube attraction peptides” (Nature Communications, 2017).)
